Reference: paper doi:10.1101/2021.02.27.433148
Like-named read-outs stand apart in the source and are kept apart here.

Key:
[1] = target: human norovirus GII.4 Saga P-domain (native, Asn373) (human norovirus GII.4 Saga); experiment: native MS
[2] = target: human norovirus GII.4 Saga P-domain, fully deamidated at position 373 (iso-aspartate) (human norovirus GII.4 Saga)
[3] = target: murine norovirus (MNV) CR10 P-domain (murine norovirus, strain CR10) (UniProt Q80J94); experiment: native MS
Q80J94 = experiment: SEC
[4] = target: murine norovirus (MNV) CW1 P-domain (murine norovirus, strain CW1) (UniProt Q80J94); experiment: SEC
[5] = target: murine norovirus (MNV) CW1 P-domain (murine norovirus, strain CW1) (UniProt Q80J94); experiment: NMR titration
[6] = target: murine norovirus (MNV) CW1 P-domain (murine norovirus, strain CW1) (UniProt Q80J94); experiment: NMR titration; remark: listed apart in the source
[7] = target: murine norovirus (MNV) CW1 P-domain (murine norovirus, strain CW1) (UniProt Q80J94); experiment: SEC; remark: listed apart in the source

Question: “human norovirus GII.4 Saga P-domain (native, Asn373) (domain or fragment)” was tested. Which stoichiometry N [1] did it give?
Answer: The stoichiometry N was 2.

Question: For “human norovirus GII.4 Saga P-domain point mutant N373Q (domain or fragment)”, which koff [2] is on record?
Answer: Its koff is 1.5e-06 s⁻¹.

Question: What does the source list for “murine norovirus (MNV) CR10 P-domain (from UniProt Q80J94 229-531) (domain or fragment)”?
Answer: Kd [3]: 32 µM; stoichiometry N [3]: 2

Question: murine norovirus (MNV) CW1 P-domain was tested. Which “kex (printed as dissociation rate constant kex, from SEC peak tailing)” value (Q80J94) did it give?
Answer: Its value is 0.03 s⁻¹.

Question: What does the source list for “murine norovirus (MNV) CW1 P-domain (from UniProt Q80J94 225-541) (domain or fragment)”?
Answer: stoichiometry N [4]: 2; Kd [5]: 12.5 µM; koff [5]: 0.035 s⁻¹; kon [5]: 2800 M⁻¹ s⁻¹; Kd [6]: 31 µM; dimer half-life t1/2 [6]: 17 s; Kd [7]: 40 µM; stoichiometry N [7]: 2
